The values below come from US7470669B2, “Isolated polypeptide comprising a leptin fragment” (Serono Genetics Institute, S.A., priority 1999, dated 2008).

For data set [1], the system named is db^Pas/db^Pas mice. Briefly: Postprandial plasma TG response after high-fat test meal in db^Pas/db^Pas mice. In kind it is in vivo, mouse. The following applies: 0.25 μg/animal i.p. On the procedure: FIGS. 1A and 1B show the effect of leptin on postprandial plasma TG response in db/db and db^Pas/db^Pas mice. Overnight-fasted db/db (A), db^Pas/db^Pas (B) mice were gavage-fed a high-fat test meal and immediately injected intravenously (db/db) or intraperitoneally (db^Pas/db^Pas) with saline (open symbols) or 50 μg mouse recombinant leptin (closed symbols). At the indicated times, blood was collected from the tail (A) or orbital (B) vein, plasma was separated by centrifugation, and plasma TG concentrations were determined using an enzymatic kit. Each point represents the mean±SEM (db/db: saline, n=4, leptin, n=3; db^Pas/db^Pas: saline, n=6, leptin, n=7). […] The plasma lipid response was then measured as in A and B. The area under the response curve (AUC) was then calculated using a triangulation method on Microsoft Excel between 0 and 4 hr (mg TG·h/mL). […]
(§1) FIGS. 7A and 7B show a comparison of the effect of human and mouse leptin on LSR activity in rat hepatocytes and on postprandial increase in plasma TG in db^Pas/db^Pas mice. […] The media were removed and were analyzed for TCA-soluble degradation products. […] The data represent the difference in TG concentrations measured at t=0 and the average of the concentrations at 3 and 4 hours. […]

For data set [2], the system named is LSR. Nature of the data set: LSR activity (oleate-induced 125I-LDL binding, uptake, degradation) in primary cultures of rat hepatocytes. It counts as cell-based. On the procedure:
FIGS. 6A, 6B, and 6C show the effect of leptin on ^125I-LDL and ^125I-chylomicron binding to LSR in primary cultures of rat hepatocytes. For FIG. 6A, primary cultures of rat hepatocytes (48 hours after plating) were incubated at 37° C. for 30 min in the absence (□) or presence (▪) of 50 ng/mL leptin in Buffer A, followed by a 20 min incubation at 37° C. with 0.5 mM oleate. The cells were then washed with ice-cold PBS, precooled for 10 min, and then incubated for 1 h at 4° C. with increasing concentrations of ^125I-LDL in Buffer A. Cells were washed, were lysed in 0.1 N NaOH and were counted for radioactivity. Results are shown as the mean of duplicate determinations. […] The media was recovered and the radioactivity was measured. […] The amount of ^125I-chylomicrons bound was determined, and results are shown as means±SD of triplicate (irrelevant) or quadruplicate (anti-LSR) determinations.
as §1

B1: mouse leptin: recombinant mouse leptin, laboratory-prepared or commercial (Sigma, Calbiochem) (protein, UniProt P41160 22-167, looked up)
Leptin: VPIQKVQDDTKTLIKTIVTRINDISHTQSVSAKQRVTGLDFIPGLHPILSLSKMDQTLAVYQQVLTSLPSQNVLQIANDLENLRDLLHLLAFSKSCSLPQTSGLQKPESLDGVLEASLYSTEVVALSRLQGSLQDILQQLDVSPEC
Consider B1, for which the “postprandial plasma TG response” value in data set [1] is “pronounced effect”. In addition, in data set [2] (10 ng/mL recombinant leptin), the “stimulation of LSR-mediated LDL degradation in primary cultures of rat hepatocytes” value is “more efficient than human leptin”. Moreover, in data set [2] (rat hepatocytes, 30 min preincubation with 20 ng/mL at 37° C., binding at 4° C.), the “oleate-induced 125I-LDL binding to the cell surface” value is recorded as “increased”.
